We go through four substances from publication PMC5501728.

Usually stoichiometry N stands for the number of molecules, sites or subunits per partner or assembly. Broadly, the Kd is the equilibrium constant for the complex coming apart. A lower Kd goes with higher affinity.

For assay [1], the target named is ΔN54-PGAM5, His6 tag cleaved (human) (UniProt Q96HS1). Briefly: crystal structure; ΔN54-PGAM5-phosphate complex; sitting drop, 20°C, 18% PEG 3350, 0.1 M MES pH 5.7.
For assay [2], the target named is PGAM5 residues 81–289 (human) (UniProt Q96HS1). Briefly: AUC; sedimentation velocity, 4°C, 45,000 rpm, protein 50-60 μM in 50 mM Tris pH 7.5, 300 mM NaCl, 0.5 mM TCEP.
Assay [3] addresses ΔN90-PGAM5 (residues 90–289), His6 tag cleaved (human) (UniProt Q96HS1). Briefly: AUC; sedimentation equilibrium, dimer to monomers (self-association model, global fit); 0.7, 0.46 and 0.35 mg/ml in 50 mM HEPES pH 7.5, 300 mM NaCl, 0.5 mM TCEP; 12,000 and 18,000 rpm.
Assay [4] has the same target. Briefly: AUC; sedimentation velocity, 4°C, 45,000 rpm, protein 50-60 μM in 50 mM Tris pH 7.5, 300 mM NaCl, 0.5 mM TCEP.
Assay [5] has the same target. As to the kind of experiment: crystal structure; ΔN90-PGAM5 apo and phosphate complex; sitting drop, 20°C, PEG 3350 and 5000 MME 12-20%, 0.1 M HEPES pH 7.5.
Assay [6] addresses ΔN90-PGAM5, His6 tag not cleaved (for analytical SEC) (human) (UniProt Q96HS1). Briefly: SEC; Superdex Increase s200 10/300 GL, 50 mM Tris pH 7.5, 200 mM NaCl; His-tagged proteins at several concentrations. (In gel filtration, larger molecules generally elute earlier.)

“ΔN54-PGAM5, His6 tag cleaved (from UniProt Q96HS1 54-289) (domain or fragment)” came in with a stoichiometry N in assay [1] of 12.
“PGAM5 residues 81–289 (from UniProt Q96HS1 81-289) (domain or fragment)” gave a stoichiometry N in assay [2] of 2.
With “ΔN90-PGAM5 (residues 90–289), His6 tag cleaved (from UniProt Q96HS1 90-289) (domain or fragment)”, the Kd in assay [3] came out at 480 nM. In addition, the stoichiometry N in assay [4] and in assay [5] was 2 each time.
As for “ΔN90-PGAM5, His6 tag not cleaved (for analytical SEC) (from UniProt Q96HS1 90-289) (domain or fragment)”, in assay [6], the stoichiometry N is 2.
